According to article PMC6195595, “Structure-based redesign of docking domain interactions modulates the product spectrum of a rhabdopeptide-synthesizing NRPS” (Nature Communications, 2018):

B1: Kj12B-CDDshort peptide (peptide)
peptide: QEYLRGEI
notes: source: synthetic peptide (Fmoc solid-phase synthesis, preparative HPLC)
B2: Kj12B-CDDshort L1564A peptide (peptide)
peptide: QEYARGEI
notes: as for B1
B3: Kj12C N-terminal docking domain (domain or fragment)
chain: MIDAAQIVDEALEQGITLFVVNNRLQYETSRDSIPTELLNKWKQHKQELIDFLNQLDSEEQTK
notes: Kj12C of Xenorhabdus stockiae KJ12.1, N-terminal docking domain, 63 residues; 15N-labelled for the NMR titrations; also called Kj12C-NDD; source: E. coli BL21-Gold(DE3), purified (HisTrap, Ulp1 cleavage, anion exchange, SEC); not shown: His6-SUMO, N-terminal, cleaved
B4: Kj12B-CDDshort G1566A peptide (peptide)
peptide: QEYLRAEI
notes: as for B1
B5: Kj12B C-terminal docking domain peptide (peptide)
peptide: LLKEKRKHFQAEQNSSQEYLRGEI
notes: also called Kj12B-CDD; source: synthetic peptide, bought: JPT Peptides Technologies GmbH

Columns and labels:
Assay in all cases: ITC; 50 µM NDD (or Kj12C construct) in the cell titrated with 1 mM CDD peptide; 20 °C; 50 mM sodium phosphate pH 6.5, 100 mM NaCl; one site binding model; three independent titrations
Conditions in all cases: both partners purified
[1] = molecular target: B3
[2] = molecular target: B3
[3] = molecular target: T1, Kj12B-CDDshort R1565E peptide (Xenorhabdus stockiae KJ12.1, R1565E (stands in the printed letters))
T1 construct: source: synthetic peptide (Fmoc solid-phase synthesis, preparative HPLC)

[4] = molecular target: T2, Kj12B N-terminal docking domain (Xenorhabdus stockiae KJ12.1)
T2 construct: also called Kj12B-NDD; source: E. coli BL21-Gold(DE3), purified (HisTrap, Ulp1 cleavage, anion exchange, SEC)
T2 chain: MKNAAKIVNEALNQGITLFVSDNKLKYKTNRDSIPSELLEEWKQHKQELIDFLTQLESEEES

[5] = molecular target: T3, Kj12A N-terminal docking domain (Xenorhabdus stockiae KJ12.1)
T3 construct: also called Kj12A-NDD; source: E. coli BL21-Gold(DE3), purified (HisTrap, Ulp1 cleavage, anion exchange, SEC)
T3 chain: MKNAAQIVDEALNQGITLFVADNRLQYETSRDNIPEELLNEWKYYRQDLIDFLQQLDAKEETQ

Binder | stoichiometry N [1] [sites] | Kd [2] [µM] | also measured
B1 | 1.05 ± 0.11 | – | –
B2 | – | > 100 | –
B3 | – | – | Kd [3]: > 100 µM
B4 | – | > 100 | –
B5 | 0.9 ± 0.12 | – | stoichiometry N [4]: 1 sites; stoichiometry N [5]: 0.81 ± 0.01 sites
